According to publication PMC3399880, “Genomic Organisation, Embryonic Expression and Biochemical Interactions of the Zebrafish Junctional Adhesion Molecule Family of Receptors” (PLoS ONE, 2012):

B1: zebrafish Jamc ectodomain (extracellular IgSF domains) fused to rat Cd4 domains 3 and 4 (domain or fragment, UniProt A3KPA0 24-235, looked up)
chain: VLLKSTNSKPWVNEFESIELSCMIESITTTKPRIEWKKIKNGDPSYVYFDNQISGDLERRAKIREPATLVILNATRSDSADYRCEVTAPNDQKSFDEILISLTVRVKPVVPRCSVPKSIPVGKPAELHCLEDEGYPKSQYQWFRNKEEIPLDPKSSPKFFNSTYTLDGEMGTLKFSAVRKEDAGEYYCRAKNEAGISECGPQMMEVYDINIA
notes: Jamc (official symbol jam3b), zebrafish orthologue of JAM-C; extracellular IgSF domains; Stood both as analyte and as ligand (6H and bio forms); also called Jam3b; JAM-C orthologue; source: mammalian expression system, purified; analyte resolved by gel filtration immediately before use; not shown: rat Cd4 domains 3 and 4, C-terminal, kept
B2: zebrafish Jamb ectodomain (extracellular IgSF domains) fused to rat Cd4 domains 3 and 4 (domain or fragment, UniProt A0A0R4IGV4 19-226, looked up)
chain: VTVSSRNPKVEVHEFSDAELSCEFKTEKDTNPRIEWKRKDKEKDVSFVYYGERFVGPFQDRADIEGATVRLRRVTQADAGEYRCEVSAPSDSISLGETNVTLRVLVPPQTPSCDVPSSALTGSQVELRCRDRHSIPPAVYTWYKDNRALPIRHPNATYTVNEFTGVLIPQSHYNPGTVCQHCMYHPNYHIPNTQLTTTFQTHDLNVAA
notes: Jamb (official symbol jam2a), zebrafish orthologue of JAM-B; extracellular IgSF domains; Stood both as analyte and as ligand (6H and bio forms); also called Jam2a; JAM-B orthologue; source: mammalian expression system, purified; analyte resolved by gel filtration immediately before use; not shown: rat Cd4 domains 3 and 4, C-terminal, kept

Assays:
Experiment in all cases: SPR; systematic all-against-all screen of the six ectodomains, each as analyte and as ligand; dissociation phase of three concentrations of purified analyte averaged and fitted to a first-order decay curve; t1/2 = ln 2/kd; 28°C; half-lives in the text are the average of both orientations; t1/2 <=0.1 s not quantifiable (10 Hz instrument)
[1] = target: zebrafish Jamc2 ectodomain (extracellular IgSF domains) fused to rat Cd4 domains 3 and 4 (zebrafish)
[2] = target: zebrafish Jamc ectodomain (extracellular IgSF domains) fused to rat Cd4 domains 3 and 4 (zebrafish) (UniProt A3KPA0)
[3] = target: the molecule itself
[4] = target: B1; settings: both partners purified

“zebrafish Jamb ectodomain (extracellular IgSF domains) fused to rat Cd4 domains 3 and 4 (from UniProt A0A0R4IGV4 19-226) (domain or fragment)” showed a t1/2 (half-life of the complex) [1] of 7 s.

Work on “zebrafish Jamc2 ectodomain (extracellular IgSF domains) fused to rat Cd4 domains 3 and 4 (from UniProt A0ACD6B6E9 1-301) (domain or fragment)” yielded a t1/2 (half-life of the complex) [1] of 0.11 s.

With “zebrafish Jamb2 ectodomain (extracellular IgSF domains) fused to rat Cd4 domains 3 and 4 (from UniProt B0V233 1-306) (domain or fragment)” the t1/2 (half-life of the complex) [2] was 0.26 s.

B1 was tested, and the “t1/2 (half-life of the complex)” value [3] was 0.67 s.

In the case of B2, the “t1/2 (half-life of the complex)” value [4] is reported as about 1.63 s.
